“And” between values parts separate entries of the source, which are not always exact repeats. Equal entries are not always repeated.

The values below come from US8871276B2, “Beta-casein assemblies for mucosal delivery of therapeutic bioactive agents” (Technion Research and Development Foundation Ltd., priority 2008, dated 2014).

Common to all, as to type: physicochemical
Data set [1] can be described thus: Light microscopy (Nomarski DIC) / visual solubility observation. Conditions: hepes buffer, neutral pH, with or without β-casein. The protocol: An Olympus BX51 light microscope was operated at Nomarski differential interference contrast (DIC) optics. A 5 μL drop was placed on a glass slide, covered with a cover slide. Images were recorded digitally with an Olympus DP71 digital camera connected to the light microscope. Image processing was performed using Cell A (Olympus).
Bovine β-casein (>90%; Sigma-Aldrich) was dissolved in pH 7.0 hepes buffer containing 200 mM hepes (MP Biomedicals), 10 mM MgCl2 (Sigma-Aldrich), 20 mM EGTA (Sigma-Aldrich) and 10 mM NaCl (Loba Chemie), and was placed over-night at 4° C. under stirring. The protein solutions were prepared at concentrations ranging from 0.5 to 2 wt % (0.21 to 0.83 mM respectively), and were filtered through a porous membrane of 0.45 μm to avoid large protein aggregates. […] Stirring continued for 30 minutes in room temperature. […] The specimens remained stable i.e., no precipitation was observed, for at least 3 weeks at 4° C.

Data set [2] is described as follows: Water content by Karl Fischer Coulometer. The protocol: In this experiment the water content of celocoxib (CXB), beta-casein (β-CN) 1% nanocarriers, Sigma beta-casein (β-CN, Sigma material), and CXB-loaded β-CN 1% nanocarriers was measured by Metrohm 831 Karl Fischer Coulometer.
In an attempt to reduce the water content, an additional lypholization cycle was performed for the empty and CXB-loaded β-CN 1% nanocarriers. After this second lyophilization cycle water content was measured by Metrohm 831 Karl Fischer Coulometer.
Specifically, the first cycle lasted for 24 hours (data is presented in tables 5-7) then all samples were subjected to an additional cycle of lyophilization that lasted for 48 hours (total of 72 hours). Tables 8 and 9 present the results of samples that were subjected to 24, […], and 72 hours of lyophilization.

The nature of data set [3]: Small angle X-ray scattering (SAXS) of micelles. Conditions: 1 wt % β-casein, empty or loaded 1:8 protein:celecoxib, pH ~7.
The nature of data set [4]: Small angle X-ray scattering (SAXS) of micelles. The note with it: 1 wt % β-casein, empty or loaded 1:8 protein:celecoxib, pH ~7. The method, then: The small angle X-ray scattering equipment consisted of a SAXSess camera (Anton-Paar, Graz, Austria) connected to an X-ray generator (Philips, PW 1730/10) operating at 40 kV and 50 mA with a sealed-tube Cu anode. A Gael mirror was used to convert the divergent polychromatic X-ray beam into a focused line-shaped beam of Cu Kα radiation (λ=0.154 nm). The 2D scattering pattern was recorded by a PI-SCX fused fiber optic taper CCD camera from Princeton Instruments, which is a division of Roper Scientific, Inc. (Trenton, N.J., USA). The used CCD detector features a 2084×2084 array with 24×24 μm pixel size (chip size: 50×50 mm). The CCD was operated at −30° C. with 10° C. water-assisted cooling to reduce the thermally generated charge. Cosmic ray correction and background subtraction were performed on the 2D image before further data processing. The 2D image was integrated into the one-dimensional scattering function within a band of 10 mm. The measurement time was 30 min for each scattering curve (6 images of 5 minutes were taken to assist the cosmic ray correction).
The molecular weight of the scattering aggregates were calculated according to Eq. 1:
[formula] where M is the molecular weight, dΣ(0)/dΩ (cm^−1) the forward scattering intensity at q=0, c (g/cm^3) the β-casein concentration, NA the Avogadro number, and ΔρM (cm/g) the scattering length difference per mass, given by: ΔρM=Δρ ν (2)
The scattering length difference Δρ (cm^−2) was calculated using the known chemical composition of the protein and the solvent, and ν (cm^3/g), the specific volume of the protein in the solution that was calculated via density measurement of the solvent and the solution. The micelle aggregation number was then calculated by dividing the molecular weight of the micelles determined with Eq. 1, by the molecular weight of a single protein molecule.
For a particle of arbitrary shape with a scattering density difference of Δρ(r), the pair distance distribution function p(r) (PDDF) is given by: p(r)=r^2Δ ρ^2(r) (3) where Δ ρ^2(r) is the convolution square of Δρ(r) averaged for all directions in space. The PDDF is related to the scattered intensity l(q) by a Fourier transformation, and it enables the determination of the overall shape and size of the scattering objects.
[formula] λ is the wavelength of the incident radiation and θ is the angle between the scattered and incident beam. The function ƒ(r)=p(r)/r (6) is useful to identify flat plate-like particles, although it has no direct physical meaning. For lamellae, this function starts with a linearly increasing part and becomes almost flat when r is equal to the thickness of the lamella. For flat particles with a finite base area, the outer part decreases linearly because of boundary losses. The thickness of the lamella can then be read from the transition point.
The structural characteristics of the micelles in the two pH environments were studied by cryo-TEM and SAXS (Small Angle X-ray Scattering). Cryo-TEM was used to determine the shape of the micelles and to estimate their dimensions between 4 and 40° C. This information was further used to accurately calculate the micelles' dimensions from the SAXS data, and to study how the size and shape are affected by temperature. SAXS measurements also provided the critical micelle concentration (CMC) and the micelle aggregation numbers as a function of temperature. Experiments were performed in the concentration range of 0.1-40 mg/mL protein, at low pH (between 2.1 and 2.6) in dilute lactic acid solution (6 wt %) or HCl and in aqueous solutions at pH 6.7-7.3 in absence of salts or the presence of up to 0.1M NaCl.
SAXS measurements were used to determine the shape and dimensions of the micelles at low pH more precisely, and to evaluate the micelle molecular weight (i.e., the aggregation number). The scattering curves of 20 mg/mL β-casein in lactic acid solution (pH 2.6, IS 0.0022) at different temperatures are shown in FIG. 3a. […]
This is another data set of the same source.

`CC(C)CCC[C@@H](C)[C@H]1CC[C@H]2[C@@H]3CC=C4C[C@@H](O)CC[C@]4(C)[C@H]3CC[C@]12C` [Cholesterol, cholesterol]: in data set [1], the “Solubility in aqueous buffer (observation)” value is given as “does not dissolve in buffer at all”.
The same measure, in the same setting: as for `Cc1ccc(-c2cc(C(F)(F)F)nn2-c2ccc(S(N)(=O)=O)cc2)cc1` [Celecoxib, celecoxib, reference compound], the entry is “poor solubility”.

B1: β-CN: Sigma beta-casein raw material powder (protein, UniProt P02666 16-224, looked up)
Beta-casein: RELEELNVPGEIVESLSSSEESITRINKKIEKFQSEEQQQTEDELQDKIHPFAQTQSLVYPFPGPIPNSLPQNIPPLTQTPVVVPPFLQPEVMGVSKVKEAMAPKHKEMPFPKYPVEPFTESQSLTLTDVENLHLPLPLLQSWMHQPHQPLPPTVMFPPQSVLSLSQSKVLPVPQKAVPYPQRDMPIQAFLLYQEPVLGPVRGPFPIIV
For the molecule B1, the “Average water content of lyophilized (dried) powders” value in data set [2] (data of Tables 5-7) is “more than 10 % w/w”. For the same molecule, in data set [2] (β-CN Sigma material, lyophilization time none, average), the “% water, AVR” value was found to be 13.0%. For the same molecule, the “% water” value in data set [2] (β-CN Sigma material, single sample) was 15.0% and 9.4% and 14.7%.

B2: β-casein dried: empty β-casein micelles after lyophilization and re-suspension (protein, UniProt P02666 16-224, looked up)
Beta-casein: B1 Beta-casein
modifications: lyophilized micelles
notes: empty β-casein micelles after lyophilization and re-suspension
The molecule B2 showed a Density in data set [3] of 1.23 g/mL. Also, in data set [4], the “Rg (from Guinier apr.)” value is given as 8.1 nm and the “V, from a, b” value turned out to be 2841 nm^3.
